Holding throughout (type): biochemical
A short description of experiment [1]: Thioesterase enzyme activity assay, pimeloyl-CoA to pimelate (release of CoA, Ellman's reagent). Conditions: 667 μM pimeloyl-CoA, 0.8 μM enzyme, pH 7.4, 37° C., 20 min; relative to empty vector control; FIG. 8. As for the experimental part:
A sequence encoding an N-terminal His tag was added to the tesB gene from Escherichia coli that encodes a thioesterase (SEQ ID NO 1, see FIG. 7A), such that an N-terminal HIS tagged thioesterase could be produced. The modified tesB gene was cloned into a pET15b expression vector under control of the T7 promoter. The expression vector was transformed into a BL21[DE3] E. coli host. The resulting recombinant E. coli strain was cultivated at 37° C. in a 500 mL shake flask culture containing 50 mL Luria Broth (LB) media and antibiotic selection pressure, with shaking at 230 rpm. The culture was induced overnight at 17° C. using 0.5 mM IPTG.
The pellet from the induced shake flask culture was harvested via centrifugation. The pellet was resuspended and lysed in Y-Per™ solution (ThermoScientific, Rockford, Ill.). The cell debris was separated from the supernatant via centrifugation. […]
The enzyme activity assay was performed in triplicate in a buffer composed of 50 mM phosphate buffer (pH=7.4), 0.1 mM Ellman's reagent, and 667 μM of pimeloyl-CoA (as substrate). […] The release of Coenzyme A was monitored by absorbance at 412 nm. The absorbance associated with the substrate only control, which contained boiled enzyme, was subtracted from the active enzyme assay absorbance and compared to the empty vector control.
(DTNB colorimetry detects thiols as they appear.)

Experiment [2] in a line: Pimeloyl-[acp] methyl ester methylesterase activity assay, pimeloyl-CoA methyl ester to pimeloyl-CoA (LC-MS). The conditions noted are these: 10 μM enzyme, 5 mM pimeloyl-CoA methyl ester, pH 7.0, 30° C., 1 h; FIG. 20. The method, then: A nucleotide sequence encoding a C-terminal His-tag was added to the gene from Escherichia coli encoding the pimeloyl-[acp] methylester methylesterase of SEQ ID NO: 17 (see FIG. 7H) such that a C-terminal HIS tagged pimeloyl-[acp] methyl ester methylesterase could be produced. The resulting modified gene was cloned into a pET28b+ expression vector under control of the T7 promoter and the expression vector was transformed into a BL21[DE3] E. coli host. The resulting recombinant E. coli strain was cultivated at 37° C. in a 500 mL shake flask culture containing 100 mL LB media and antibiotic selection pressure, with shaking at 230 rpm. Each culture was induced overnight at 18° C. using 0.3 mM IPTG.
The pellet from each induced shake flask culture was harvested via centrifugation. Each pellet was resuspended and lysed via sonication. The cell debris was separated from the supernatant via centrifugation. […]
Enzyme activity assays converting pimeloyl-CoA methyl ester to pimeloyl-CoA were performed in triplicate in a buffer composed of a final concentration of 25 mM Tris.HCl buffer (pH=7.0) and 5 [mM] pimeloyl-CoA methyl ester. […] The formation of pimeloyl-CoA was quantified via LC-MS.

Experiment [3] in a line: Carboxylate reductase activity assay, pimelate semialdehyde to heptanedial. Conditions: purified enzyme enhanced by sfp gene product, 2 mM pimelate semialdehyde, room temperature, 20 min; against empty vector control; FIG. 13. The method, then: The N-terminal His-tagged carboxylate reductase of SEQ ID NO 7 (see Example 4 and FIG. 7F) was assayed using pimelate semialdehyde as substrate. The enzyme activity assay was performed in triplicate in a buffer composed of a final concentration of 50 mM HEPES buffer (pH=7.5), 2 mM pimelate semialdehyde, 10 mM MgCl2, 1 mM ATP and 1 mM NADPH. The enzyme activity assay reaction was initiated by adding purified carboxylate reductase and phosphopantetheine transferase or the empty vector control to the assay buffer containing the pimelate semialdehyde and then incubated at room temperature for 20 min. The consumption of NADPH was monitored by absorbance at 340 nm.

Experiment [4] is described as follows: Carboxylate reductase activity assay, N7-acetyl-7-aminoheptanoate to N7-acetyl-7-aminoheptanal. Conditions: purified enzyme enhanced by sfp gene product, 2 mM substrate, room temperature, 20 min; against empty vector control; FIG. 12. The method, then:
The activity of each of the N-terminal His-tagged carboxylate reductases of SEQ ID NOs: 3, 6, and 7 (see Examples 4, and FIGS. 7B, 7E, and 7F) for converting N7-acetyl-7-aminoheptanoate to N7-acetyl-7-aminoheptanal was assayed in triplicate in a buffer composed of a final concentration of 50 mM HEPES buffer (pH=7.5), 2 mM N7-acetyl-7-aminoheptanoate, 10 mM MgCl2, 1 mM ATP, and 1 mM NADPH. The assays were initiated by adding purified carboxylate reductase and phosphopantetheine transferase or the empty vector control to the assay buffer containing the N7-acetyl-7-aminoheptanoate then incubated at room temperature for 20 min. The consumption of NADPH was monitored by absorbance at 340 nm.

Experiment [5] can be described thus: Carboxylate reductase activity assay, pimelate to pimelate semialdehyde (NADPH consumption). Conditions: purified enzyme enhanced by sfp gene product, 2 mM pimelate, room temperature, 20 min; against empty vector control; FIG. 10. The method, then:
A sequence encoding a HIS-tag was added to the genes from Segniliparus rugosus and Segniliparus rotundus that encode the carboxylate reductases of SEQ ID NOs: 4 and 7, respectively (see FIGS. 7C and 7F), such that N-terminal HIS tagged carboxylate reductases could be produced. Each of the modified genes was cloned into a pET Duet expression vector along with a sfp gene encoding a HIS-tagged phosphopantetheine transferase from Bacillus subtilis, both under the T7 promoter. Each expression vector was transformed into a BL21[DE3] E. coli host and the resulting recombinant E. coli strains were cultivated at 37° C. in a 250 mL shake flask culture containing 50 mL LB media and antibiotic selection pressure, with shaking at 230 rpm. Each culture was induced overnight at 37° C. using an auto-induction media.
The pellet from each induced shake flask culture was harvested via centrifugation. Each pellet was resuspended and lysed via sonication, and the cell debris was separated from the supernatant via centrifugation. […]
Enzyme activity assays (i.e., from pimelate to pimelate semialdehyde) were performed in triplicate in a buffer composed of a final concentration of 50 mM HEPES buffer (pH=7.5), 2 mM pimelate, 10 mM MgCl2, 1 mM ATP and 1 mM NADPH. […] The consumption of NADPH was monitored by absorbance at 340 nm.

B1: gene product of tesB: Escherichia coli thioesterase encoded by tesB, GenBank Accession No. AAA24665.1 (protein, listed as Escherichia coli)
chain: MSQALKNLLTLLNLEKIEEGLFRGQSEDLGLRQVFGGQVVGQALYAAKETVPEERLVHSFHSYFLRPGDSKKPIIYDVETLRDGNSFSARRVAAIQNGKPIFYMTASFQAPEAGFEHQKTMPSAPAPDGLPSETQIAQSLAHLLPPVLKDKFICDRPLEVRPVEFHNPLKGHVAEPHRQVWIRANGSVPDDLRVHQYLLGYASDLNFLPVALQPHGIGFLEPGIQIATIDHSMWFHRPFNLNEWLLYSVESTSASSARGFVRGEFYTQDGVLVASTVQEGVMRNHN
With B1, the “acceptance of pimeloyl-CoA as substrate (release of Coenzyme A, absorbance at 412 nm)” value in experiment [1] is “accepted pimeloyl-CoA as substrate”.

B2: SEQ ID NO. 17: Escherichia coli pimelyl-[acp] methyl ester esterase, GenBank Accession No. AAC76437.1 (protein, listed as Escherichia coli)
chain: MNNIWWQTKGQGNVHLVLLHGWGLNAEVWRCIDEELSSHFTLHLVDLPGFGRSRGFGALSLADMAEAVLQQAPDKAIWLGWSLGGLVASQIALTHPERVQALVTVASSPCFSARDEWPGIKPDVLAGFQQQLSDDFQRTVERFLALQTMGTETARQDARALKKTVLALPMPEVDVLNGGLEILKTVDLRQPLQNVSMPFLRLYGYLDGLVPRKVVPMLDKLWPHSESYIFAKAAHAPFISHPAEFCHLLVALKQRV
B2: the “acceptance of pimeloyl-CoA methyl ester as substrate, forming pimeloyl-CoA (LC-MS)” value in experiment [2] is “accepted pimeloyl-CoA methyl ester as substrate”.

B3: SEQ ID NO 7: Segniliparus rotundus carboxylate reductase, Genbank Accession No. ADG98140.1 (protein, listed as Segniliparus rotundus)
chain: MTQSHTQGPQASAAHSRLARRAAELLATDPQAAATLPDPEVVRQATRPGLRLAERVDAILSGYADRPALGQRSFQTVKDPITGRSSVELLPTFDTITYRELRERATAIASDLAHHPQAPAKPGDFLASIGFISVDYVAIDIAGVFAGLTAVPLQTGATLATLTAITAETAPTLFAASIEHLPTAVDAVLATPSVRRLLVFDYRAGSDEDREAVEAAKRKIADAGSSVLVDVLDEVIARGKSAPKAPLPPATDAGDDSLSLLIYTSGSTGTPKGAMYPERNVAHFWGGVWAAAFDEDAAPPVPAINITFLPLSHVASRLSLMPTLARGGLMHFVAKSDLSTLFEDLKLARPTNLFLVPRVVEMLYQHYQSELDRRGVQDGTREAEAVKDDLRTGLLGGRILTAGFGSAPLSAELAGFIESLLQIHLVDGYGSTEAGPVWRDGYLVKPPVTDYKLIDVPELGYFSTDSPHPRGELAIKTQTILPGYYKRPETTAEVFDEDGFYLTGDVVAQIGPEQFAYVDRRKNVLKLSQGEFVTLAKLEAAYSSSPLVRQLFVYGSSERSYLLAVIVPTPDALKKFGVGEAAKAALGESLQKIARDEGLQSYEVPRDFIIETDPFTVENGLLSDARKSLRPKLKEHYGERLEAMYKELADGQANELRDIRRGVQQRPTLETVRRAAAAMLGASAAEIKPDAHFTDLGGDSLSALTFSNFLHDLFEVDVPVGVIVSAANTLGSVAEHIDAQLAGGRARPTFATVHGKGSTTIKASDLTLDKFIDEQTLEAAKHLPKPADPPRTVLLTGANGWLGRFLALEWLERLAPAGGKLITIVRGKDAAQAKARLDAAYESGDPKLAGHYQDLAATTLEVLAGDFSEPRLGLDEATWNRLADEVDFISHPGALVNHVLPYNQLFGPNVAGVAEIIKLAITTRIKPVTYLSTVAVAAGVEPSALDEDGDIRTVSAERSVDEGYANGYGNSKWGGEVLLREAHDRTGLPVRVFRSDMILAHQKYTGQVNATDQFTRLVQSLLATGLAPKSFYELDAQGNRQRAHYDGIPVDFTAESITTLGGDGLEGYRSYNVFNPHRDGVGLDEFVDWLIEAGHPITRIDDYDQWLSRFETSLRGLPESKRQASVLPLLHAFARPGPAVDGSPFRNTVFRTDVQKAKIGAEHDIPHLGKALVLKYADDIKQLGLL
As to B3, the “acceptance of pimelate semialdehyde as substrate, forming heptanedial (NADPH consumption, absorbance at 340 nm)” value in experiment [3] is “accepted pimelate semialdehyde as substrate”. Also, the “acceptance of N7-acetyl-7-aminoheptanoate as substrate (NADPH consumption, absorbance at 340 nm)” value in experiment [4] is reported as “accepted N7-acetyl-7-aminoheptanoate as substrate”. Further, the “acceptance of pimelate as substrate (NADPH consumption, absorbance at 340 nm)” value in experiment [5] is listed as “accepted pimelate as substrate”.

For the origin of these results see US10196657B2, “Methods of producing 7-carbon chemicals via methyl-ester shielded carbon chain elongation” (INVISTA North America S.á r.l., priority 2012, dated 2019).
